In assay [1] the target is 5-FAM-labeled H2B(9-23)K9Ac K15Ac K19Ac K21Ac peptide of L. donovani histone H2B (Leishmania donovani). Nature of the assay: fluorescence polarisation; 800 nM 5-FAM peptide, protein 0-300 μM; 20 mM HEPES, 500 mM NaCl, 1 mg/mL BSA, pH 7.5; 30 min at room temperature; one-site-specific binding fit (two-site for BD5T); n = 3.
Assay [2] has as its target 5-FAM-labeled H2B(8-16)K9Ac K15Ac peptide of L. donovani histone H2B (Leishmania donovani). The description is as above.
For assay [3], the target named is 5-FAM-labeled H2B(17-23)K19Ac K21Ac peptide of L. donovani histone H2B (Leishmania donovani). The description is as above.
Assay [4] addresses unlabeled pan-acetylated peptide based on the H2B(9-23) sequence of L. donovani histone H2B (Leishmania donovani). Nature of the assay: thermal shift assay; 2.1 μM BD5T, 2x SYPRO orange, peptide at 400 μM, 20 mM HEPES, 500 mM NaCl, pH 7.5; 25 to 95 °C; n = 6.

The term Kd denotes the equilibrium constant for the complex coming apart. Higher therefore signals weaker binding. Regarding “Leishmania donovani bromodomain factor 5 (LdBDF5) first bromodomain, recombinant BD5.1 (domain or fragment)”, the Kd in assay [1] was found to be 117 µM; in assay [2] it was 170 µM; in assay [3], 77.5 µM.

With “Leishmania donovani bromodomain factor 5 (LdBDF5) second bromodomain, recombinant BD5.2 (domain or fragment)”, the values for the Kd in assay [1], in assay [2] and in assay [3] were 463 µM, 366 µM and 160 µM, respectively.

By ΔTm is commonly meant the shift of the melting midpoint relative to a reference. In the case of “Leishmania donovani bromodomain factor 5 (LdBDF5) tandem bromodomain pair, recombinant BD5T (domain or fragment)”, the ΔTm at 400 μM peptide in assay [4] was 0.6 °C.

The record behind these values is paper PMC10644352, “Bromodomain Factor 5 as a Target for Antileishmanial Drug Discovery” (ACS Infectious Diseases, 2023).
